Laboratory results from US20240175042.

Experiments:
[1] = target: EIN2-CEND (co-expressed in Arabidopsis mesophyll protoplasts) (UniProt Q9S814)
His6-EBF2 (purified) = His6-EBF2 (purified) (UniProt Q708Y0)
Sequence of His6-EBF2 (purified) (Q708Y0 whole entry): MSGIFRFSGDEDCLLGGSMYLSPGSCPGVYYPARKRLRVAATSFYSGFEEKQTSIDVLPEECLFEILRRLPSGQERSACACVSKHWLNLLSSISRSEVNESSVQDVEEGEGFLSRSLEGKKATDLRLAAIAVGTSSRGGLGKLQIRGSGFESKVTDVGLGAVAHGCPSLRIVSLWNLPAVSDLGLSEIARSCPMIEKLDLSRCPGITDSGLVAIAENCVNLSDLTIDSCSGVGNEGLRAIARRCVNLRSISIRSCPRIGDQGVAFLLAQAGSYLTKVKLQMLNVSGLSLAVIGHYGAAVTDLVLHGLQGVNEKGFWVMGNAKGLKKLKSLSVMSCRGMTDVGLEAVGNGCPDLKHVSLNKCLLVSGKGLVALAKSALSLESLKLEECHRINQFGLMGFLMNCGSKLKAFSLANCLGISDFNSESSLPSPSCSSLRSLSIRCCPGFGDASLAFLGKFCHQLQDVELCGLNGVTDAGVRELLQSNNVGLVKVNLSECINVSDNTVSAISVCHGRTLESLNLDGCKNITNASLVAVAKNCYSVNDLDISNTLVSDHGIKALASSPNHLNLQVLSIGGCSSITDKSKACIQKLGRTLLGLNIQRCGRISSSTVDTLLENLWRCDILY

Sequence of EIN2-CEND (co-expressed in Arabidopsis mesophyll protoplasts) (Q9S814 462-1294): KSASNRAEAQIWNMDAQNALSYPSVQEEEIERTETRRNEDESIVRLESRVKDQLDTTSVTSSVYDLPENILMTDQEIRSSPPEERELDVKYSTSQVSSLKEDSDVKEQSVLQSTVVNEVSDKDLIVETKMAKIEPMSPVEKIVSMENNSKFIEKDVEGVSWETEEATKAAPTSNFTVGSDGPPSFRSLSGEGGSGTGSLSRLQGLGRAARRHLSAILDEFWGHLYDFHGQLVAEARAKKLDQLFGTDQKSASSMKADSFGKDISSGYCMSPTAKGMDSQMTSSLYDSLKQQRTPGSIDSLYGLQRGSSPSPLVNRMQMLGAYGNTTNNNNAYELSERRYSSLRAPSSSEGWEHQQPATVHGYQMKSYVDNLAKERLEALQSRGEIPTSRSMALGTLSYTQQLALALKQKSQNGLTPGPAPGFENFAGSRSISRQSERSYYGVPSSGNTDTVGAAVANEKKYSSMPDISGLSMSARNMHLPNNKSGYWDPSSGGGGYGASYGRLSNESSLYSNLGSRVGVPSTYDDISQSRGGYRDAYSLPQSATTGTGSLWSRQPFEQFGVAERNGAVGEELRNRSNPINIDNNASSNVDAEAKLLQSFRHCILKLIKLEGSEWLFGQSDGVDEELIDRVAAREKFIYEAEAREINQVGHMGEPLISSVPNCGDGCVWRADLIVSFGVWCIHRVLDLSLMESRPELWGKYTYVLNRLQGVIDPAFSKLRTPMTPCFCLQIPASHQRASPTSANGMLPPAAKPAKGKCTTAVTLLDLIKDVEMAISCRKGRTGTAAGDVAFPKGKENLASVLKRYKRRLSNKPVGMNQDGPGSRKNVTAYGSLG
Sequence of His6-CTR1-KD^WT (purified CTR1 kinase domain, residues 531-821) (chain, as listed by the source): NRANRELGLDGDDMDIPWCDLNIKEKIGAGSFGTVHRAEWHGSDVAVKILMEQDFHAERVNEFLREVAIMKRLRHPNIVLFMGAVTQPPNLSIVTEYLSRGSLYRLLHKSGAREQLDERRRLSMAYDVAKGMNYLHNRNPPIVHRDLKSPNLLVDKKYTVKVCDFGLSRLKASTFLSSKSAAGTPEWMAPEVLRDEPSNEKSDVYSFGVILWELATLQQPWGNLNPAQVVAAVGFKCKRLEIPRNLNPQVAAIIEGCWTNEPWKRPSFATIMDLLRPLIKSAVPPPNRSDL
Sequence of CTR1-KD (wild-type CTR1 kinase domain lacking the N-terminal domain, expressed in Arabidopsis mesophyll protoplasts) (chain, as listed by the source): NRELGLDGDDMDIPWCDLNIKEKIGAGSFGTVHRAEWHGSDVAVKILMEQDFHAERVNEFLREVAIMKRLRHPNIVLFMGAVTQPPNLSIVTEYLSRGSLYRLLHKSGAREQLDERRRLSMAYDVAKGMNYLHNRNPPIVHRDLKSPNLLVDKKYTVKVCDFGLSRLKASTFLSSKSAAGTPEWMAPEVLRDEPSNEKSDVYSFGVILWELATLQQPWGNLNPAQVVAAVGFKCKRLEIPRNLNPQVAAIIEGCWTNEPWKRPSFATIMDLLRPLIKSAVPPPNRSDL
Sequence of CTR1-KD^AAA (CTR1 kinase domain with T704A/S707A/S710A, expressed in Arabidopsis mesophyll protoplasts) (chain, as listed by the source T704A S707A S710A): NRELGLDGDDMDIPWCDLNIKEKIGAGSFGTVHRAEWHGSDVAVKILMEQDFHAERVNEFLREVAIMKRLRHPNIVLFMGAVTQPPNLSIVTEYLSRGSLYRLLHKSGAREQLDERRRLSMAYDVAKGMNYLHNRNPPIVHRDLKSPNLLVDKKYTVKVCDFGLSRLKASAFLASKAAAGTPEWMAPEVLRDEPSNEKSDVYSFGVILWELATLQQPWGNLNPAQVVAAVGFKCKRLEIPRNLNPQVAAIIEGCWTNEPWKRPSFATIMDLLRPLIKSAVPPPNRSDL

CTR1-KD (wild-type CTR1 kinase domain lacking the N-terminal domain, expressed in Arabidopsis mesophyll protoplasts)
Phos-tag gel band shift of EIN2-CEND on co-expression in Arabidopsis mesophyll protoplasts [1]: Wild-type CTR1-KD, but not CTR1-KD^AAA, phosphorylated EIN2-CEND when co-expressed in Arabidopsis mesophyll protoplasts

His6-CTR1-KD^WT (purified CTR1 kinase domain, residues 531-821)
in vitro kinase assay ([γ-32P]ATP incorporation, autoradiography) (His6-EBF2 (purified)): in vitro kinase assay demonstrated that CTR1 does not phosphorylate EBF2

CTR1-KD^AAA (CTR1 kinase domain with T704A/S707A/S710A, expressed in Arabidopsis mesophyll protoplasts)
Phos-tag gel band shift of EIN2-CEND on co-expression in Arabidopsis mesophyll protoplasts [1]: Wild-type CTR1-KD, but not CTR1-KD^AAA, phosphorylated EIN2-CEND when co-expressed in Arabidopsis mesophyll protoplasts
